Our source for the Km, Vmax and kcat values is paper PMC6315137, “Pyridine Nucleotide Coenzyme Specificity of p-Hydroxybenzoate Hydroxylase and Related Flavoprotein Monooxygenases” (Frontiers in Microbiology, 2018).

What is called Km is the concentration of substrate that gives half-maximal velocity. For orientation: Vmax means the rate approached at saturating substrate. A word on the kcat: it is the maximal rate divided by the concentration of active sites.

Holding throughout (experiment): purified protein
Substrate in series [1]: NC(=O)C1=CN([C@@H]2O[C@H](COP(=O)(O)OP(=O)(O)OC[C@H]3O[C@@H](n4cnc5c(N)ncnc54)[C@H](OP(=O)(O)O)[C@@H]3O)[C@@H](O)[C@H]2O)C=CC1
It is filed as biochemical, Cupriavidus necator. To be noted: 500 μM 4-hydroxybenzoate, 60 μM FAD, 50 mM Tris/sulfate pH 7.5, 30°C.

Substrate in series [2]: O=C(O)c1ccc(O)cc1
The class given is biochemical, Cupriavidus necator. To be noted: 175 μM NADPH, 60 μM FAD, 50 mM Tris/sulfate pH 7.5, 30°C.

Substrate in series [3]: NC(=O)C1=CN([C@@H]2O[C@H](COP(=O)(O)OP(=O)(O)OC[C@H]3O[C@@H](n4cnc5c(N)ncnc54)[C@H](OP(=O)(O)O)[C@@H]3O)[C@@H](O)[C@H]2O)C=CC1
It is filed as biochemical, Rhodococcus opacus. To be noted: 500 μM 4-hydroxybenzoate, 60 μM FAD, 50 mM Tris/sulfate pH 7.5, 30°C.

Substrate in series [4]: NC(=O)C1=CN([C@@H]2O[C@H](COP(=O)(O)OP(=O)(O)OC[C@H]3O[C@@H](n4cnc5c(N)ncnc54)[C@H](O)[C@@H]3O)[C@@H](O)[C@H]2O)C=CC1
The class given is biochemical, Rhodococcus opacus. To be noted: 500 μM 4-hydroxybenzoate, 60 μM FAD, 50 mM Tris/sulfate pH 7.5, 30°C.

Substrate in series [5]: O=C(O)c1ccc(O)cc1
It is filed as biochemical, Rhodococcus opacus. The following applies: 175 μM NADH, 60 μM FAD, 50 mM Tris/sulfate pH 7.5, 30°C.

Substrate in series [6]: NC(=O)C1=CN([C@@H]2O[C@H](COP(=O)(O)OP(=O)(O)OC[C@H]3O[C@@H](n4cnc5c(N)ncnc54)[C@H](O)[C@@H]3O)[C@@H](O)[C@H]2O)C=CC1
It is filed as biochemical, Cupriavidus pinatubonensis. To be noted: 500 μM 4-hydroxybenzoate, 60 μM FAD, 50 mM Tris/sulfate pH 7.5, 30°C.

Substrate in series [7]: O=C(O)c1ccc(O)cc1
The class given is biochemical, Cupriavidus pinatubonensis. To be noted: 175 μM NADH, 60 μM FAD, 50 mM Tris/sulfate pH 7.5, 30°C.

B1: PHBHCn2 (Cupriavidus pinatubonensis JMP134) (protein)
chain: MRTQVAIIGAGPAGLLLGQLLSRAGIDNIIVEQRSPEYVLGRIRAGILESVTVDALERAGVAARLHDEGLPHAGIELSFNGQRHRIDLQALTGRTVTVYGQTEVTRDLMAARQAEGTTTIYEAADVSLHGFDGTRPLVRYRKDGATHEIECDYIAGCDGFHGVSRQSVPATSSQLFERVYPFGWLGILSDTPPVADELIYASHERGFALCSMRSKARSRYYVQVPSTERVEDWSDERFWDELRSRLDPQAAESLVTGPSIEKSIAPLRSFVCEPMRFGRLFLAGDAAHIVPPTGAKGLNLAASDVLYLADALTARYQQDDLRELDSYSEKCLRRIWKAERFSWWMTSLLHRFPDADAFSARIQQAELDFLVSSEAACKALAENYVGLPY
notes: N-terminal His10-tag, codon-optimized gene, E. coli BL21 (DE3) pLysS, Ni-chelate purified; motif 32-EQRSPEYVLGR
Regarding B1, in “purified protein [1]”, the Km came out at 146 ± 20 µM, the Vmax turned out to be 49.1 µmol/min/mg and the kcat came to 37 ± 2.8 s⁻¹. Besides, in the series “purified protein [2]”, the Km came to 26.4 ± 4.4 µM, the Vmax was 27 µmol/min/mg and the kcat is 18 ± 0.7 s⁻¹.

B2: PHBHRo1CP (Rhodococcus opacus) (protein)
chain: MNTQVGIVGGGPAGLMLSHLLHLKGIDSVVLESRTREEVEGTIRAGVLEQNTVDLMVDTGLGDRVKREGLTHHGIELRFGGRGHRIDFDELTNGRAVTVYPQHEVLKDLIARRLEDDGDIRFGVSDVQVHDHTSDNPKITYLDADGNEQTLTCALVAGCDGSRTSTRGLIPETTVRTDHFRQYPFAWFGILAEAPPSSEELIYANHPRGFALISTRTPEVQRHYLQVDPDDSVDNWSDDRIWSELHARVDGEGAEIKDGKIFQKSILQFRSFVCEPMQHGNLFLAGDAAHTVPPTGAKGMNLAIADVYFLSQAMAEYFATRSRAGLEGYTDSVLPRVWRTQHFSWWMSSMLHRLPDETGFGHKRQVAELDMVTRSVAGRTLIAENYVGTPLG
notes: His10-tagged, pET16bp, E. coli, Ni-chelate purified; motif 32-ESRTREEVEGT
On to B2, for which the values for the Km in “purified protein [3]”, in the series “purified protein [4]” and in “purified protein [5]” were 153 ± 16 µM, 39.7 ± 5.0 µM and 30.4 ± 2.4 µM, respectively. For the same protein, the values for the Vmax in “purified protein [3]”, in the series “purified protein [4]” and in the series “purified protein [5]” were 19.8 µmol/min/mg, 20 µmol/min/mg and 16.8 µmol/min/mg, respectively. Also, the kcat is 15 ± 1.5 s⁻¹ in the series “purified protein [3]”, 15.3 ± 0.7 s⁻¹ in “purified protein [4]” and 12.9 ± 0.2 s⁻¹ in the series “purified protein [5]”.

B3: PHBHCn1 (Cupriavidus pinatubonensis JMP134) (protein)
chain: MRTRVAIIGAGPAGLLLGHLLQRAGIDSVILEDCTQAHVEARIRAGVLEQGTVDLLEEAGVAARLREQGMVHHGIDLLFDGQRHRIDLSGLTGGRAITVYGQHEVVRDLIAARQACGAPLLFEVSQVALHGLDTQSPSLSFEHGGQRHVLACDFIAGCDGSHGVSRHAVPAGALQVFERSYPFAWLGILASAAPAAQELIYASHARGFALFSMRSPEITRLYLQCRPDEDLAGWTDRRIWDELHARLETGDGWHLNEGPVLQKGITPMRSLVTEPMQYGRLFLAGDAAHIVPPTGAKGMNLAVADVRNLAHALVTHYRHGRDDLLAGYSSACLARVWRAEHFSWWMTSLLHRFDDHTPFTARLQHAELAYVCASQAASRMLAENYVGLPFAPLPA
notes: N-terminal His10-tag, codon-optimized gene, E. coli BL21 (DE3) pLysS, Ni-chelate purified; motif 32-EDCTQAHVEAR
For the protein B3, in “purified protein [6]”, the Km came to 49.8 ± 5.6 µM, the Vmax was 12.3 µmol/min/mg and the kcat was determined as 9.4 ± 0.4 s⁻¹. Further, in “purified protein [7]”, the Km amounted to 20.2 ± 2.3 µM, the Vmax was determined as 9.9 µmol/min/mg and the kcat was found to be 7.6 ± 0.2 s⁻¹.
